Measured values as given in publication PMC12218379 (Scientific Reports, 2025).

Target: the molecule itself
Assay: SEC-MALS

B1: SsRidA (SSA_0809), reactive intermediate deaminase A homolog from Streptococcus sanguinis (enzyme, UniProt A3CM35 1-126, looked up)
chain: MAKTIHTDKAPAAIGPYVQGKIVGNLLFASGQIPLSPETGEIIGTTIEEQTQQVLKNVSAILEAAGTDFDHVVKATCFLSDINDFVAFNEVYKTAFTEAFPARSAVEVARLPKDVKIEIEVIAEIL
stoichiometry N: 3
